Assay results published in PMC3350781 (Current Biology, 2011).

T1: Wsp1p poly (p)-VCA (residues 129-574 including the polyproline domain and VCA) (S. pombe, UniProt O36027 129-574)
T1 sequence (looked up): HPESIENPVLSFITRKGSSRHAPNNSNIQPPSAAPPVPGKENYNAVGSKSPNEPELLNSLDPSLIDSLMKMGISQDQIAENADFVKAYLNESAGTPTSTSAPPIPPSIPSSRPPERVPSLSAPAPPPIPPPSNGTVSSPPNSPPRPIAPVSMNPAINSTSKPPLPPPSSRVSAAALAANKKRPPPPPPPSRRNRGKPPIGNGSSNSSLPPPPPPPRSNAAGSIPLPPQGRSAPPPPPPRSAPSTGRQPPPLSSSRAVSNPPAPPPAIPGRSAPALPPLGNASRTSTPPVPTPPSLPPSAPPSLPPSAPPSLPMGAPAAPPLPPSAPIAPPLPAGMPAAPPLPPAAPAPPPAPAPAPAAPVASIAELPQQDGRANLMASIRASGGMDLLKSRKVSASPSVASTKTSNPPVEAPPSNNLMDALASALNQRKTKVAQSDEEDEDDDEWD

B1: GST-Bzz1pSH3 (residues 586-642) (domain or fragment, S. pombe, UniProt Q09746 586-642, looked up)
chain: SSYVKALYAYTAQSDMELSIQEGDIIQVTNRNAGNGWSEGILNGVTGQFPANYVTDV
B2: GST-Bzz1pSH3SH3 (residues 521-642) (domain or fragment, S. pombe, UniProt Q09746 521-642, looked up)
chain: VVLYDFTGEHEGVITASEGQEFTLLEPDDGSGWVRVKIDGTDGLIPASYVKLNDELNTSVTLDGDSSYVKALYAYTAQSDMELSIQEGDIIQVTNRNAGNGWSEGILNGVTGQFPANYVTDV

Target: T1, Wsp1p poly (p)-VCA (residues 129-574 …)
Assay: pull-down

Row | Binder | Kd
1 | B1 | ~2000 nM
2 | B2 | ~100 nM
